These results are taken from patent US20180022819A1 (published 2018).

In experiment [1] the target is T1, prostate-specific membrane antigen (PSMA) (human, UniProt Q04609 1-750). The experiment is described as follows: flow cytometry binding, 22Rv1 cells; 2 wk enza. Background: In flow cytometry, cells or beads pass a laser one at a time.
Experiment [2] deals with T1, prostate-specific membrane antigen …. The experiment in a line: flow cytometry binding, 22Rv1 cells; 3 wk enza.
Experiment [3] shares this target. The experiment in a line: flow cytometry binding, 22Rv1 cells; 0 enza (untreated).
Experiment [4] shares this target. The experiment is described as follows: flow cytometry binding, 22Rv1 cells; 1 wk enza.

Usually EC50 stands for the midpoint of the concentration-response curve. Lower therefore signals an effect from little substance.

T1 sequence (Q04609 whole entry): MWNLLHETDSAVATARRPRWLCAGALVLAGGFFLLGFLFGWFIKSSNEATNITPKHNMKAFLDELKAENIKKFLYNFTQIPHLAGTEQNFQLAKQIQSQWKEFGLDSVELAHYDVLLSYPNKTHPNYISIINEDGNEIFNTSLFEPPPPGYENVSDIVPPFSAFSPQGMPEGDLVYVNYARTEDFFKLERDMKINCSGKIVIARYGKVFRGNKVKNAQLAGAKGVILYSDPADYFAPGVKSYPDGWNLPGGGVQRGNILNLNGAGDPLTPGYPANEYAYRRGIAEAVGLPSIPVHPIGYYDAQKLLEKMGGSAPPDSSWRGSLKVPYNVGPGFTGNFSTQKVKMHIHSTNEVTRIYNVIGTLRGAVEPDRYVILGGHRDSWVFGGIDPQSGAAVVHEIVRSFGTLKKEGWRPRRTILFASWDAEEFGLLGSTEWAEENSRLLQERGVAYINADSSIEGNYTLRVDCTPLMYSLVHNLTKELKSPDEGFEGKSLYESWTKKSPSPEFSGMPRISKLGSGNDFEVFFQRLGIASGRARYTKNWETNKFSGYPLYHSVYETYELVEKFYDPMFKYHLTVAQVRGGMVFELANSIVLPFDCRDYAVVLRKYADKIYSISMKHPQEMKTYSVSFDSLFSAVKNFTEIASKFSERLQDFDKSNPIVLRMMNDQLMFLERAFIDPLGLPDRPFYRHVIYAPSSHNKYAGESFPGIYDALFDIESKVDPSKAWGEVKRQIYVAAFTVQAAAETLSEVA

B1: FITC-labeled anti-PSMA monoclonal antibody 107-1A4 (Acris) (antibody, V domains shown)
VH: EIQLQQSGPELVKPGASVKMSCKASGYTFTDYYMHWVKQNNGESLEWIGYFNPYNDYTRYNQNFNGKATLTVDKSSSTAYMQLNSLTSEDSAFYYCARSDGYYDAMDYWGQGTSVTVSS
VL: DVQITQSPSYLAASPGETITINCRASKSISKYLAWYQEKPGKANKLLIHSGSTLQSGIPSRFSGSGSGTDFTLTISSLEPEDFAMYYCQQHIEYPWTFGGGTKLEIKR
Regarding B1, the EC50 was 2.5 nM in experiment [1], 2.7 nM in experiment [2], 2.2 nM in experiment [3] and 2.3 nM in experiment [4].
